Experimental data as given in PMC10907219, “Leishmania profilin interacts with actin through an unusual structural mechanism to control cytoskeletal dynamics in parasites” (The Journal of Biological Chemistry, 2024).

B1: Leishmania major profilin (LmProfilin), wild type (natural protein)
chain: SWQAYVDDSLIGSGNMHSAAIIGAADGSYWAYGGSYVPQPEEVQHIQKCLSDFSFVQSSGVNIYGVKFFGLQCGTDGDCKYIFFKKGAAGGCIYTTKQAFIVAVYGNPGDTSSLQQDLEKNTAHAVTVNPADCNTTVKRIADYLIKLGY
notes: Leishmania major profilin, TriTrypDB LmjF.32.0520, UniProt Q4Q5N1; codon-optimised synthetic gene in pCoofy3; also called WT LmProfilin; LmProf-WT; source: E. coli BL21(DE3), purified (Ni-NTA, tag cleavage with 3C-PreScission protease, gel filtration); not shown: His6, N-terminal, cleaved; GST, N-terminal, cleaved

What was measured:
[1] = target: Leishmania major actin (LmActin), ATP-actin monomer (UniProt P45520); test: ITC; details: three independent ITC experiments for each protein; parent: 93.5
[2] = target: Leishmania major actin (LmActin), ATP-actin monomer (Leishmania major) (UniProt P45520); test: ITC; LmActin (14-19 μM) in the sample cell, profilin (150 μM) in the syringe; 22 °C; G-buffer (2 mM Tris pH 7.5, 0.5 mM β-mercaptoethanol, 0.2 mM CaCl2, 0.2 mM ATP); single set of sites model; three independent experiments
[3] = target: T1, Leishmania major actin (LmActin), ATP-actin monomer (Leishmania major, UniProt P45520 1-376, ATP-bound with Ca2+ (G-buffer), monomeric; C-terminal beta-thymosin-His10 tag removed by chymotrypsin; initiator Met absent as in the 8C47 entity (equals Q9U1E8 2-376)); test: crystal structure; LmProfilin and LmActin mixed at ~1:1 molar ratio, 4.5 to 6.5 mg/ml, sitting drop; 0.1 M Bis-Tris pH 5.5, PEG4000 26% (w/v), 0.2 M NaCl; ATP-actin monomer with Ca2+; details: both partners purified
[4] = target: T1, Leishmania major actin (LmActin), …; test: ITC; LmActin (14-19 μM) in the sample cell, profilin (150 μM) in the syringe; 22 °C; G-buffer (2 mM Tris pH 7.5, 0.5 mM β-mercaptoethanol, 0.2 mM CaCl2, 0.2 mM ATP); single set of sites model; three independent experiments; details: both partners purified
[5] = target: B1; test: other fluorescence titration; intrinsic tryptophan fluorescence of profilin (1 μM) with 3 to 3156 μM poly-L-proline decamer; room temperature; 20 mM Hepes pH 8.0, 50 mM NaCl; excitation 295 nm; OneSiteBind fit; details: both partners purified

Q: With “Leishmania major profilin (LmProfilin), wild type (from UniProt Q4Q5N1) L115S; L119S” as the molecule, how does the Kd [1] read?
A: 2.74 µM

Q: For “LmProfilin-K68A (from UniProt Q4Q5N1 2-150) (natural protein)”, which Kd [2] is on record?
A: 3 µM

Q: For “LmProfilin-WH2-SS (Leu115 and Leu119 replaced by serines) (from UniProt Q4Q5N1 2-150) (natural protein)”, which fold reduction of affinity against WT profilin [2] is on record?
A: 25 fold

Q: Which Kd [2] does the source give for “LmProfilin-Y6A (from UniProt Q4Q5N1 2-150) (natural protein)” here?
A: 0.09 µM

Q: For “LmProfilin-ΔWH2 (entire WH2-like motif deleted) (from UniProt Q4Q5N1 2-150) (natural protein)”, which fold reduction of affinity against WT profilin [2] is on record?
A: 25 fold

Q: B1 was tested. Which “stoichiometry N” value [3] did it give?
A: 1

Q: And the Kd [4]?
A: ~0.09 µM

B2: decamer poly-L-proline peptide (peptide)
peptide: PPPPPPPPPP
notes: ten L-prolines written out from these words; also called poly-L-proline decamer; polyproline decamer; source: synthetic peptide, bought: CASLO ApS
Q: Which Kd [5] does the source give for B2 here?
A: 263 µM
